The results in this text go back to US12698507B2, “Methods and compositions for conferring and/or enhancing herbicide tolerance using protoporphyrinogen IX oxidase of various cyanobacteria or variant thereof” (FarmHannong Co., Ltd., priority 2019, dated 2026).

B1: CyPPO19 R89A + L327T + F360M: variant of CyPPO19 PPO protein (SEQ ID NO: 1) (protein)
chain: MSEVDVAIVGGGLSGLSLAWRLQQSAPQYSVVLLEASDRLGGNITTQTAEGFVWELGPNSFAPTPALLQLIAEVGLQSELIRGDRHLPAYIYWRGQLYPLQPTRPLALATSNLLSPWGKVRAALGALGFVPPYLGSGDESVNSFFRRHLGQEVAERLVAPFVSGVYAGDPQQLSAAAAFRRIAQLEKLGGGLIAGALHLRRQQAPKPKPPTSVQMRPGELGSFKEGLAALPRAIAQQLKAPIHLQTPVQEITPDPKGGYLLRSGEQTWRARSVVLATPAYQTAELVAPFQPAIARVLATIPYPTVACVVLAYPAGLGRSVRPGFGVTIPRSQGIRTLGTIWSSCLFPQRTPAGWQVFTSMIGGATDPDLASLSEEAIVQQVQQDLNRLLDLPAAKARLLGMKVWRRAIPQYMVGYPEQWQQVTHALSQTPGLFLCSNYAEGVALGDRVEHGNRTAAAVAAYLSGGQP
modifications: Synthetic_PPO of Thermosynechococcus elongatus PKUAC-SCTE542 (comprising GenBank No. CP032152.1)
B2: CyPPO19 R89A + L327T + F360T: variant of CyPPO19 PPO protein (SEQ ID NO: 1) (protein)
chain: B1 chain with M360T
modifications: Synthetic_PPO of Thermosynechococcus elongatus PKUAC-SCTE542 (comprising GenBank No. CP032152.1)
B3: CyPPO19 V165S + A167C + F360L: variant of CyPPO19 PPO protein (SEQ ID NO: 1) (protein)
chain: B1 chain with A89R, V165S, A167C, T327L, M360L
modifications: Synthetic_PPO of Thermosynechococcus elongatus PKUAC-SCTE542 (comprising GenBank No. CP032152.1)
B4: CyPPO19 R89A + I408R + F360L: variant of CyPPO19 PPO protein (SEQ ID NO: 1) (protein)
chain: B1 chain with T327L, M360L, I408R
modifications: Synthetic_PPO of Thermosynechococcus elongatus PKUAC-SCTE542 (comprising GenBank No. CP032152.1)
B5: CyPPO19 R89A + I408R + F360M: variant of CyPPO19 PPO protein (SEQ ID NO: 1) (protein)
chain: B1 chain with T327L, I408R
modifications: Synthetic_PPO of Thermosynechococcus elongatus PKUAC-SCTE542 (comprising GenBank No. CP032152.1)
B6: CyPPO19 V165S + A167I + F360M: variant of CyPPO19 PPO protein (SEQ ID NO: 1) (protein)
chain: B1 chain with A89R, V165S, A167I, T327L
modifications: Synthetic_PPO of Thermosynechococcus elongatus PKUAC-SCTE542 (comprising GenBank No. CP032152.1)
B7: CyPPO19 R89A + I408W + F360V: variant of CyPPO19 PPO protein (SEQ ID NO: 1) (protein)
chain: B1 chain with T327L, M360V, I408W
modifications: Synthetic_PPO of Thermosynechococcus elongatus PKUAC-SCTE542 (comprising GenBank No. CP032152.1)
B8: CyPPO19 V165C + A167L + F360T: variant of CyPPO19 PPO protein (SEQ ID NO: 1) (protein)
chain: B1 chain with A89R, V165C, A167L, T327L, M360T
modifications: Synthetic_PPO of Thermosynechococcus elongatus PKUAC-SCTE542 (comprising GenBank No. CP032152.1)

Changes are numbered by the printed parent chain. Numbers in names are those of the source.

For the assay, the system named is PPO-deficient BT3 E. coli (ΔPPO). Kind of assay: PPO-inhibiting herbicide tolerance test of PPO variants in E. coli (growth on herbicide-containing LB agar). Type of assay: cell-based. The conditions noted are these: CyPPO19 variants in BT3 (ΔPPO) E. coli; LB agar with 0 to 2,000 μM herbicide, 37° C., dark, 16-20 hours. From the text:
To enhance the PPO-inhibiting herbicide resistance of CyPPO19 and CyPPO18, PPO variant genes of the above example 2 were constructed. They were transformed to BT3 (ΔPPO) strain which is deficient of PPO activity and cultured in LB media with PPO-inhibiting herbicide, thereby examining whether growth of transformed BT3 was not inhibited.
BT3 competent cells were transformed with the pET303-CyPPO19 (wild type), pET303-CyPPO18 (wild type) plasmids, and those with a mutation(s) constructed (refer to example 2) via heat shock method, and were cultured in LB agar media containing ampicillin.
Single colony transformed with each CyPPO gene was cultured in 3 mL of LB broth (LPSS) containing ampicillin for more than 12 hours, and then was subcultured in LB broth until absorbance (OD600) reached 0.5 to 1. Then, it was diluted with LB broth to OD600=0.5. Again, the diluted solution was serially diluted 4 times by a factor of one tenth.
The LB agar media (LB 25 g/L, Bacto agar 12 g/L) containing ampicillin (100 μg/mL) and 0 to 2,000 μM of various herbicides were prepared. Herbicide solution stocks were all prepared in DMSO.
Then, 10 μL of each diluted solution of E. coli was dropped on the plate and cultured at 37° C. under dark for 16-20 hours. PPO-inhibiting herbicide resistance was evaluated with the extent of E. coli growth containing each gene was observed.
The extent of herbicide resistance was evaluated by the relative growth of variants to that of wild type, and listed in Tables 9 and 10 and FIGS. 3 to 32.
In Tables 9 and 10, the tolerance level of variants showing equivalent resistance to wild type was presented as ‘−’, and was done as ‘+’ per each 10-fold resistance until ‘+++++’ as maximal resistance.
FIGS. 3 to 30 and FIGS. 31 and 32 show the transformed E. coli growth result of CyPPO19 WT and its variants and CyPPO18 WT and its variants, respectively. The concentrations of herbicides were written above the photographs of tolerance test. A 10-fold dilution series of spots were shown from OD600=0.5 of the leftmost spot to OD600=0.00005 of the rightmost one.
In the case of B1, the “tolerance level relative to wild type, Carfentrazone” value is on record as “+ (‘+’ per each 10-fold resistance)”; the “tolerance level relative to wild type, Flumioxazin” value is “++++ (‘+’ per each 10-fold resistance)”; the “tolerance level relative to wild type, Fomesafen” value is listed as “+++ (‘+’ per each 10-fold resistance)”; the “tolerance level relative to wild type, Oxyfluorfen” value was “++ (‘+’ per each 10-fold resistance)”. The “tolerance level relative to wild type, Saflufenacil” value was “++ (‘+’ per each 10-fold resistance)”; the “tolerance level relative to wild type, Sulfentrazone” value is listed as “++ (‘+’ per each 10-fold resistance)”; the “tolerance level relative to wild type, Tiafenacil” value is given as “+++ (‘+’ per each 10-fold resistance)”.
Consider B2, for which the “tolerance level relative to wild type, Carfentrazone” value is given as “+ (‘+’ per each 10-fold resistance)”; the “tolerance level relative to wild type, Flumioxazin” value is listed as “+++++ (until ‘+++++’ as maximal resistance)”; the “tolerance level relative to wild type, Fomesafen” value is listed as “+++++ (until ‘+++++’ as maximal resistance)”; the “tolerance level relative to wild type, Oxyfluorfen” value is “+++ (‘+’ per each 10-fold resistance)”. In addition, the “tolerance level relative to wild type, Saflufenacil” value is recorded as “+++++ (until ‘+++++’ as maximal resistance)”; the “tolerance level relative to wild type, Sulfentrazone” value is on record as “+++++ (until ‘+++++’ as maximal resistance)”; the “tolerance level relative to wild type, Tiafenacil” value was “+++++ (until ‘+++++’ as maximal resistance)”.
On to B3, for which the “tolerance level relative to wild type, Carfentrazone” value was “+ (‘+’ per each 10-fold resistance)”; the “tolerance level relative to wild type, Flumioxazin” value is “++++ (‘+’ per each 10-fold resistance)”; the “tolerance level relative to wild type, Fomesafen” value is “+ (‘+’ per each 10-fold resistance)”; the “tolerance level relative to wild type, Oxyfluorfen” value is on record as “+ (‘+’ per each 10-fold resistance)”. Also, the “tolerance level relative to wild type, Saflufenacil” value is “+++ (‘+’ per each 10-fold resistance)”; the “tolerance level relative to wild type, Sulfentrazone” value is reported as “++ (‘+’ per each 10-fold resistance)”; the “tolerance level relative to wild type, Tiafenacil” value is “++++ (‘+’ per each 10-fold resistance)”.
With B4, the “tolerance level relative to wild type, Carfentrazone” value was “+ (‘+’ per each 10-fold resistance)”; the “tolerance level relative to wild type, Flumioxazin” value is on record as “+++ (‘+’ per each 10-fold resistance)”; the “tolerance level relative to wild type, Fomesafen” value is “+ (‘+’ per each 10-fold resistance)”; the “tolerance level relative to wild type, Oxyfluorfen” value is on record as “+ (‘+’ per each 10-fold resistance)”. For the same molecule, the “tolerance level relative to wild type, Saflufenacil” value was “+++ (‘+’ per each 10-fold resistance)”; the “tolerance level relative to wild type, Sulfentrazone” value is “++ (‘+’ per each 10-fold resistance)”; the “tolerance level relative to wild type, Tiafenacil” value is reported as “+++ (‘+’ per each 10-fold resistance)”.
Regarding B5, the “tolerance level relative to wild type, Carfentrazone” value is “+ (‘+’ per each 10-fold resistance)”; the “tolerance level relative to wild type, Flumioxazin” value is on record as “++++ (‘+’ per each 10-fold resistance)”; the “tolerance level relative to wild type, Fomesafen” value is recorded as “+++ (‘+’ per each 10-fold resistance)”; the “tolerance level relative to wild type, Oxyfluorfen” value is reported as “++ (‘+’ per each 10-fold resistance)”. The “tolerance level relative to wild type, Saflufenacil” value was “++++ (‘+’ per each 10-fold resistance)”; the “tolerance level relative to wild type, Sulfentrazone” value is given as “+++ (‘+’ per each 10-fold resistance)”; the “tolerance level relative to wild type, Tiafenacil” value is given as “+++ (‘+’ per each 10-fold resistance)”.
As for B6, the “tolerance level relative to wild type, Carfentrazone” value is “+ (‘+’ per each 10-fold resistance)”; the “tolerance level relative to wild type, Flumioxazin” value is recorded as “+++++ (until ‘+++++’ as maximal resistance)”; the “tolerance level relative to wild type, Fomesafen” value is recorded as “++ (‘+’ per each 10-fold resistance)”; the “tolerance level relative to wild type, Oxyfluorfen” value is given as “++ (‘+’ per each 10-fold resistance)”. The “tolerance level relative to wild type, Saflufenacil” value was “++++ (‘+’ per each 10-fold resistance)”; the “tolerance level relative to wild type, Sulfentrazone” value is recorded as “+++ (‘+’ per each 10-fold resistance)”; the “tolerance level relative to wild type, Tiafenacil” value is “+++++ (until ‘+++++’ as maximal resistance)”.
Regarding B7, the “tolerance level relative to wild type, Carfentrazone” value is given as “+ (‘+’ per each 10-fold resistance)”; the “tolerance level relative to wild type, Flumioxazin” value is given as “+++++ (until ‘+++++’ as maximal resistance)”; the “tolerance level relative to wild type, Fomesafen” value is “+++++ (until ‘+++++’ as maximal resistance)”; the “tolerance level relative to wild type, Oxyfluorfen” value is “+++ (‘+’ per each 10-fold resistance)”. The “tolerance level relative to wild type, Saflufenacil” value is reported as “+++++ (until ‘+++++’ as maximal resistance)”; the “tolerance level relative to wild type, Sulfentrazone” value is reported as “+++++ (until ‘+++++’ as maximal resistance)”; the “tolerance level relative to wild type, Tiafenacil” value is on record as “+++++ (until ‘+++++’ as maximal resistance)”.
As to B8, the “tolerance level relative to wild type, Carfentrazone” value is “+ (‘+’ per each 10-fold resistance)”; the “tolerance level relative to wild type, Flumioxazin” value was “+++ (‘+’ per each 10-fold resistance)”; the “tolerance level relative to wild type, Fomesafen” value is “++ (‘+’ per each 10-fold resistance)”; the “tolerance level relative to wild type, Oxyfluorfen” value is “+ (‘+’ per each 10-fold resistance)”. For the same molecule, the “tolerance level relative to wild type, Saflufenacil” value is reported as “+++ (‘+’ per each 10-fold resistance)”; the “tolerance level relative to wild type, Sulfentrazone” value is given as “+++ (‘+’ per each 10-fold resistance)”; the “tolerance level relative to wild type, Tiafenacil” value is on record as “++++ (‘+’ per each 10-fold resistance)”.
